Test results from paper PMC2494773 (American Journal of Physiology. Heart and Circulatory …, 2008).

How the values were obtained:
[1] = target: the molecule itself; assay: non-reducing SDS-PAGE and immunoblot
SEC = target: the molecule itself; assay: SEC

B1: peroxiredoxin 1 (Prdx1), rat heart (natural protein, rat (endogenous in heart), UniProt Q63716 1-199, looked up)
chain: MSSGNAKIGHPAPSFKATAVMPDGQFKDISLSDYKGKYVVFFFYPLDFTFVCPTEIIAFSDRAEEFKKLNCQVIGASVDSHFCHLAWINTPKKQGGLGPMNIPLVSDPKRTIAQDYGVLKADEGISFRGLFIIDDKGILRQITINDLPVGRSVDEILRLVQAFQFTDKHGEVCPAGWKPGSDTIKPDVNKSKEYFSKQK
[1]
  stoichiometry N: 2

B2: peroxiredoxin 2 (Prdx2), rat heart (natural protein, rat (endogenous in heart), UniProt P35704 1-198, looked up)
chain: MASGNAHIGKPAPDFTGTAVVDGAFKEIKLSDYRGKYVVLFFYPLDFTFVCPTEIIAFSDHAEDFRKLGCEVLGVSVDSQFTHLAWINTPRKEGGLGPLNIPLLADVTKSLSQNYGVLKNDEGIAYRGLFIIDAKGVLRQITVNDLPVGRSVDEALRLVQAFQYTDEHGEVCPAGWKPGSDTIKPNVDDSKEYFSKHN
[1]
  stoichiometry N: 2
SEC
  stoichiometry N: 10
